Laboratory results as given in the supplement of paper PMC9112550, “Optimization of the antimicrobial peptide Bac7 by deep mutational scanning” (BMC Biology, 2022).

Tested on: Escherichia coli TOP10
Assay: shrunken log2 fold change of peptide-encoding DNA abundance (4.5 h post-induction vs induction); higher = less antimicrobial activity (less host growth inhibition)
Conditions: time post-induction: 4.5 h; library: site-saturation at positions 5, 18, 19, 20
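Further: peptides expressed intracellularly from a pBAD plasmid library in pooled LB shake-flask culture, induced with 0.3% L-arabinose, DNA abundance read by NGS, three biological replicates, DESeq2 with apeglm shrinkage.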

For RRIRGRPPRLPRPRPRPIYEPRP, the “shrunken log2 fold change” value was -0.0413.
With RRIRWRPPRLPRPRPRPGTSPRP the “shrunken log2 fold change” value was 0.304.
RRIRHRPPRLPRPRPRPQPDPRP was tested, and the “shrunken log2 fold change” value was -0.0791.
In the case of RRIRLRPPRLPRPRPRPIQVPRP, the “shrunken log2 fold change” value is reported as -0.072.
With RRIRMRPPRLPRPRPRPTSPPRP the “shrunken log2 fold change” value was 0.278.
With RRIRIRPPRLPRPRPRPDAEPRP the “shrunken log2 fold change” value was 0.874.
For RRIRTRPPRLPRPRPRPFLKPRP, the “shrunken log2 fold change” value was 0.092.
In the case of RRIRLRPPRLPRPRPRPLRWPRP, the “shrunken log2 fold change” value is reported as 0.524.
With RRIRRRPPRLPRPRPRPNRLPRP the “shrunken log2 fold change” value was 0.523.
RRIRRRPPRLPRPRPRPCIFPRP was tested, and the “shrunken log2 fold change” value was -0.0526.
For RRIRSRPPRLPRPRPRPMNFPRP, the “shrunken log2 fold change” value was -0.0407.
RRIRLRPPRLPRPRPRPVSIPRP was tested, and the “shrunken log2 fold change” value was -0.321.
In the case of RRIRYRPPRLPRPRPRPQPCPRP, the “shrunken log2 fold change” value is reported as 0.025.
With RRIRIRPPRLPRPRPRPAKFPRP the “shrunken log2 fold change” value was -0.158.
With RRIRRRPPRLPRPRPRPMYTPRP the “shrunken log2 fold change” value was -0.219.
For RRIRIRPPRLPRPRPRPKIMPRP, the “shrunken log2 fold change” value was -0.549.
With RRIRPRPPRLPRPRPRPMSVPRP the “shrunken log2 fold change” value was 0.0754.
In the case of RRIRLRPPRLPRPRPRPPCNPRP, the “shrunken log2 fold change” value is reported as -0.126.
In the case of RRIRMRPPRLPRPRPRPGYDPRP, the “shrunken log2 fold change” value is reported as 0.0865.
With RRIRIRPPRLPRPRPRPQNHPRP the “shrunken log2 fold change” value was -0.871.
RRIRARPPRLPRPRPRPADFPRP was tested, and the “shrunken log2 fold change” value was 0.119.
In the case of RRIRLRPPRLPRPRPRPDMSPRP, the “shrunken log2 fold change” value is reported as -0.428.
In the case of RRIRFRPPRLPRPRPRPSATPRP, the “shrunken log2 fold change” value is reported as 0.0473.
RRIRLRPPRLPRPRPRPHVEPRP was tested, and the “shrunken log2 fold change” value was 0.522.
With RRIRYRPPRLPRPRPRPYWPPRP the “shrunken log2 fold change” value was -0.0534.
For RRIRWRPPRLPRPRPRPYTGPRP, the “shrunken log2 fold change” value was -0.135.
With RRIRMRPPRLPRPRPRPCGTPRP the “shrunken log2 fold change” value was 1.97.
With RRIRMRPPRLPRPRPRPYNSPRP the “shrunken log2 fold change” value was -0.22.
For RRIRPRPPRLPRPRPRPCWFPRP, the “shrunken log2 fold change” value was -0.0933.
In the case of RRIRDRPPRLPRPRPRPGIDPRP, the “shrunken log2 fold change” value is reported as -0.245.
RRIRGRPPRLPRPRPRPCWGPRP was tested, and the “shrunken log2 fold change” value was 0.157.
RRIRDRPPRLPRPRPRPIVRPRP was tested, and the “shrunken log2 fold change” value was -0.00112.
In the case of RRIRVRPPRLPRPRPRPFWMPRP, the “shrunken log2 fold change” value is reported as 0.0403.
In the case of RRIRCRPPRLPRPRPRPLEIPRP, the “shrunken log2 fold change” value is reported as -0.164.
In the case of RRIRQRPPRLPRPRPRPIGCPRP, the “shrunken log2 fold change” value is reported as 0.0253.
With RRIRRRPPRLPRPRPRPRQLPRP the “shrunken log2 fold change” value was 0.394.
In the case of RRIRTRPPRLPRPRPRPYVLPRP, the “shrunken log2 fold change” value is reported as -0.321.
With RRIRMRPPRLPRPRPRPHKRPRP the “shrunken log2 fold change” value was 0.126.
For RRIRWRPPRLPRPRPRPFTEPRP, the “shrunken log2 fold change” value was -0.478.
In the case of RRIRARPPRLPRPRPRPLTWPRP, the “shrunken log2 fold change” value is reported as 0.272.
With RRIRARPPRLPRPRPRPIHEPRP the “shrunken log2 fold change” value was -0.0242.
With RRIRARPPRLPRPRPRPTWMPRP the “shrunken log2 fold change” value was 0.221.
RRIRLRPPRLPRPRPRPTECPRP was tested, and the “shrunken log2 fold change” value was -0.243.
For RRIRFRPPRLPRPRPRPCLVPRP, the “shrunken log2 fold change” value was -0.208.
For RRIRNRPPRLPRPRPRPWWYPRP, the “shrunken log2 fold change” value was -0.361.
In the case of RRIRSRPPRLPRPRPRPWAIPRP, the “shrunken log2 fold change” value is reported as -0.191.
RRIRKRPPRLPRPRPRPALGPRP was tested, and the “shrunken log2 fold change” value was 0.0812.
For RRIRFRPPRLPRPRPRPMVEPRP, the “shrunken log2 fold change” value was -0.0547.
For RRIRHRPPRLPRPRPRPNREPRP, the “shrunken log2 fold change” value was -0.107.
For RRIRQRPPRLPRPRPRPKCTPRP, the “shrunken log2 fold change” value was -0.0317.
In the case of RRIRPRPPRLPRPRPRPNATPRP, the “shrunken log2 fold change” value is reported as 0.323.
RRIRGRPPRLPRPRPRPFMLPRP was tested, and the “shrunken log2 fold change” value was -0.0447.
For RRIRVRPPRLPRPRPRPTINPRP, the “shrunken log2 fold change” value was -0.286.
In the case of RRIRTRPPRLPRPRPRPDIQPRP, the “shrunken log2 fold change” value is reported as -0.531.
RRIRPRPPRLPRPRPRPNACPRP was tested, and the “shrunken log2 fold change” value was 0.195.
In the case of RRIRERPPRLPRPRPRPANQPRP, the “shrunken log2 fold change” value is reported as 0.0465.
RRIRFRPPRLPRPRPRPFNKPRP was tested, and the “shrunken log2 fold change” value was -0.729.
RRIRNRPPRLPRPRPRPRTRPRP was tested, and the “shrunken log2 fold change” value was 0.368.
With RRIRQRPPRLPRPRPRPIHWPRP the “shrunken log2 fold change” value was -0.198.
RRIRCRPPRLPRPRPRPDAAPRP was tested, and the “shrunken log2 fold change” value was 1.03.
RRIRKRPPRLPRPRPRPTRWPRP was tested, and the “shrunken log2 fold change” value was 0.413.
In the case of RRIRYRPPRLPRPRPRPRQPPRP, the “shrunken log2 fold change” value is reported as 0.137.
For RRIRDRPPRLPRPRPRPGVSPRP, the “shrunken log2 fold change” value was 0.158.
In the case of RRIRLRPPRLPRPRPRPKIDPRP, the “shrunken log2 fold change” value is reported as -0.042.
In the case of RRIRDRPPRLPRPRPRPKTQPRP, the “shrunken log2 fold change” value is reported as -0.0316.
RRIRFRPPRLPRPRPRPRAFPRP was tested, and the “shrunken log2 fold change” value was 0.0447.
With RRIRVRPPRLPRPRPRPPYEPRP the “shrunken log2 fold change” value was -0.0422.
RRIRSRPPRLPRPRPRPEAIPRP was tested, and the “shrunken log2 fold change” value was 0.748.
In the case of RRIRHRPPRLPRPRPRPDQPPRP, the “shrunken log2 fold change” value is reported as 0.183.
In the case of RRIRTRPPRLPRPRPRPLGHPRP, the “shrunken log2 fold change” value is reported as -0.459.
In the case of RRIRIRPPRLPRPRPRPVLIPRP, the “shrunken log2 fold change” value is reported as -0.469.
In the case of RRIRGRPPRLPRPRPRPQKSPRP, the “shrunken log2 fold change” value is reported as 0.316.
With RRIRQRPPRLPRPRPRPCDYPRP the “shrunken log2 fold change” value was 0.07.
For RRIRWRPPRLPRPRPRPFRTPRP, the “shrunken log2 fold change” value was -0.16.
For RRIRHRPPRLPRPRPRPMDWPRP, the “shrunken log2 fold change” value was -0.177.
With RRIRCRPPRLPRPRPRPGGYPRP the “shrunken log2 fold change” value was 0.0874.
For RRIRIRPPRLPRPRPRPERMPRP, the “shrunken log2 fold change” value was -0.0641.
RRIRDRPPRLPRPRPRPCFTPRP was tested, and the “shrunken log2 fold change” value was 0.0373.
For RRIRDRPPRLPRPRPRPIKWPRP, the “shrunken log2 fold change” value was -0.147.
For RRIRIRPPRLPRPRPRPDGVPRP, the “shrunken log2 fold change” value was -0.0166.
In the case of RRIRYRPPRLPRPRPRPKIYPRP, the “shrunken log2 fold change” value is reported as -0.884.
With RRIRLRPPRLPRPRPRPHYPPRP the “shrunken log2 fold change” value was -0.736.
RRIRGRPPRLPRPRPRPACMPRP was tested, and the “shrunken log2 fold change” value was 0.671.
RRIRTRPPRLPRPRPRPFHDPRP was tested, and the “shrunken log2 fold change” value was 0.0356.
In the case of RRIRFRPPRLPRPRPRPDGMPRP, the “shrunken log2 fold change” value is reported as -0.0385.
With RRIRCRPPRLPRPRPRPRCAPRP the “shrunken log2 fold change” value was 0.346.
With RRIRVRPPRLPRPRPRPWRFPRP the “shrunken log2 fold change” value was -0.0846.
For RRIRDRPPRLPRPRPRPGCDPRP, the “shrunken log2 fold change” value was 0.79.
In the case of RRIRNRPPRLPRPRPRPAMTPRP, the “shrunken log2 fold change” value is reported as 0.157.
RRIRGRPPRLPRPRPRPRGHPRP was tested, and the “shrunken log2 fold change” value was 1.11.
With RRIRVRPPRLPRPRPRPGAEPRP the “shrunken log2 fold change” value was 0.271.
With RRIRLRPPRLPRPRPRPIDQPRP the “shrunken log2 fold change” value was 0.281.
RRIRERPPRLPRPRPRPYGVPRP was tested, and the “shrunken log2 fold change” value was -0.128.
RRIRYRPPRLPRPRPRPFESPRP was tested, and the “shrunken log2 fold change” value was -0.0101.
With RRIRPRPPRLPRPRPRPRDQPRP the “shrunken log2 fold change” value was 0.0809.
In the case of RRIRFRPPRLPRPRPRPNHTPRP, the “shrunken log2 fold change” value is reported as -0.626.
RRIRWRPPRLPRPRPRPPYHPRP was tested, and the “shrunken log2 fold change” value was -0.106.
For RRIRFRPPRLPRPRPRPWYNPRP, the “shrunken log2 fold change” value was -0.134.
RRIRDRPPRLPRPRPRPPMVPRP was tested, and the “shrunken log2 fold change” value was 0.207.
In the case of RRIRKRPPRLPRPRPRPQFPPRP, the “shrunken log2 fold change” value is reported as -0.00782.
In the case of RRIRARPPRLPRPRPRPKTSPRP, the “shrunken log2 fold change” value is reported as 0.331.
For RRIRARPPRLPRPRPRPEFSPRP, the “shrunken log2 fold change” value was 1.27.
With RRIRHRPPRLPRPRPRPWNAPRP the “shrunken log2 fold change” value was -0.0678.
With RRIRQRPPRLPRPRPRPHRDPRP the “shrunken log2 fold change” value was -0.322.
With RRIRRRPPRLPRPRPRPNWIPRP the “shrunken log2 fold change” value was 0.259.
In the case of RRIRERPPRLPRPRPRPAKYPRP, the “shrunken log2 fold change” value is reported as -0.274.
For RRIRQRPPRLPRPRPRPYVHPRP, the “shrunken log2 fold change” value was -0.258.
RRIRSRPPRLPRPRPRPCPKPRP was tested, and the “shrunken log2 fold change” value was 0.355.
For RRIRIRPPRLPRPRPRPREVPRP, the “shrunken log2 fold change” value was -0.118.
RRIRTRPPRLPRPRPRPPCIPRP was tested, and the “shrunken log2 fold change” value was 0.00685.
With RRIRPRPPRLPRPRPRPQRNPRP the “shrunken log2 fold change” value was 0.147.
In the case of RRIRLRPPRLPRPRPRPWNIPRP, the “shrunken log2 fold change” value is reported as -0.176.
For RRIRLRPPRLPRPRPRPREHPRP, the “shrunken log2 fold change” value was 0.204.
For RRIRYRPPRLPRPRPRPYPAPRP, the “shrunken log2 fold change” value was -0.641.
In the case of RRIRRRPPRLPRPRPRPANVPRP, the “shrunken log2 fold change” value is reported as -0.15.
In the case of RRIRKRPPRLPRPRPRPECPPRP, the “shrunken log2 fold change” value is reported as 0.306.
RRIRTRPPRLPRPRPRPQSRPRP was tested, and the “shrunken log2 fold change” value was -0.0689.
With RRIRVRPPRLPRPRPRPAKTPRP the “shrunken log2 fold change” value was 0.0432.
With RRIRNRPPRLPRPRPRPGPFPRP the “shrunken log2 fold change” value was 0.00962.
With RRIRTRPPRLPRPRPRPWGCPRP the “shrunken log2 fold change” value was -0.151.
For RRIRVRPPRLPRPRPRPQGGPRP, the “shrunken log2 fold change” value was -0.0824.
For RRIRDRPPRLPRPRPRPSAGPRP, the “shrunken log2 fold change” value was 0.67.
RRIRGRPPRLPRPRPRPSGFPRP was tested, and the “shrunken log2 fold change” value was 0.547.
For RRIRDRPPRLPRPRPRPLHYPRP, the “shrunken log2 fold change” value was -0.0982.
In the case of RRIRKRPPRLPRPRPRPEETPRP, the “shrunken log2 fold change” value is reported as 2.19.
